Residue numbers refer to the chain shown, from its start. One block for each binder: values may come before it.
Tests used:
[1] = molecular target: MSLN on HeLa cells (human) (UniProt Q13421); test: flow cytometry dose curve on HeLa cells
[2] = molecular target: T1, human MSLN expressed on CHO cells (human, UniProt Q13421 296-598); test: flow cytometry dose curve on CHO cells expressing human MSLN
T1 construct: whole, on cells; also called CHO-huMSLN
Description: Cell-binding dose curves for example anti-MSLN single domain antibodies described herein were performed using CHO cells expressing human MSLN (FIG. 1A), HeLa cells (FIG. 1B), and CHO-OFFtgt cells (FIG. 1C). The single domain antibodies were tested at a starting concentration of 150 nM, followed by 3-fold serial dilutions for an 8-point dose curve. All washes and dilutions of cells, antibodies, and reagents were performed using flow buffer (1X phosphate buffered saline (PBS), 1% bovine serum albumin (BSA), and 0.1% NaN₃). Cells were pelleted and resuspended at 1 × 10⁶ cells/mL in flow buffer. Then, 50 µL cells were combined with 50 µL of test antibody and incubated 30 minutes at 4° C., followed by two wash steps with flow buffer. Cells were then resuspended in 50 µL PE-conjugated secondary diluted to 1.25 µg/mL (Southern Biotech #2042-09) and incubated for 20 minutes at 4° C. After two wash steps, cells were resuspended in flow buffer and analyzed using a BD Celesta system. PE mean fluorescence intensity was plotted as a fold over background (cells incubated with secondary detection antibody only).
To determine cell binding EC50 values for example anti-MSLN single domain antibodies of the present disclosure, cell binding dose curves were performed on HeLa cells and CHO cells expressing human MSLN. […]

[3] = molecular target: T1, human MSLN expressed on CHO cells; test: flow cytometry, antibody supernatant on CHO cells expressing human MSLN
Description: Pelleted CHO cells were resuspended in flow buffer (1X phosphate buffered saline (PBS), 1% bovine serum albumin (BSA), and 0.1% NaN₃) at 1.25 × 10⁶ cells/mL. Antibody containing supernatants were diluted 1:5 in flow buffer, and 40 µL cells plus 10 µL diluted antibody supernatant were incubated for 30 minutes at 4° C. Cells were washed with flow buffer and resuspended in 50 µL phycoerythrin (PE)-conjugated secondary antibody (Southern Biotech #2042-09) diluted in flow buffer to 1.25 µg/mL and incubated for 20 minutes at 4° C. After two wash steps, cells were resuspended in flow buffer and analyzed using a Guava easyCyte 8HT system. Table E1 summarizes the target binding activity of the anti-MSLN single domain antibodies as fold over background MFI signal.

[4] = molecular target: T2, recombinant human MSLN (R&D Systems, #3265-MS) (human, UniProt Q13421 296-580, limits assumed); test: BLI (Octet HTX), antibody on AHC sensor, antigen in solution, 1:1 model
T2 construct: Bought protein; also called antigen
T2 sequence (Q13421 other isoform, or with tags, fused parts or gaps limits assumed): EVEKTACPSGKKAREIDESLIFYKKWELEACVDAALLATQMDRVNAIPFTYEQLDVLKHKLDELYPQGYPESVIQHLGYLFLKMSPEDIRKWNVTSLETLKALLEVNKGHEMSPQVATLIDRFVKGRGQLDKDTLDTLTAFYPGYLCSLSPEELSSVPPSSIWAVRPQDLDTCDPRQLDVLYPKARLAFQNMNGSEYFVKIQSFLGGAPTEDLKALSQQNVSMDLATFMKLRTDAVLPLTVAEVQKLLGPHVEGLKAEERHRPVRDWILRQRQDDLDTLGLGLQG
Description: Table E3 summarizes affinity and epitope bin information for example anti-MSLN single domain antibodies of the present disclosure. The affinity of each single domain antibody to recombinant human MSLN (R&D Systems, #3265-MS) was measured by Bio-layer interferometry (BLI) using an Octet HTX. AHC (Anti-hIgG Fc Capture) sensors were used to immobilize test antibody at 5 µg/mL. After baseline readings, sensors were dipped into antigen solutions (starting at 500 nM followed by a 7-point, 2-fold dilution series). Association and dissociation were measured for 180 and 240 seconds respectively. Data were analyzed with Octet Data Analysis v11.0 HT (ForteBio) using a standard 1:1 binding model. Epitope bins for the single domain antibodies were determined by an in-tandem competition BLI binding experiment using an Octet HTX. The antigen (5 µg/mL) was loaded on the sensor Ni-NTA sensor followed by a baseline in kinetic buffer. The antigen coated sensor was then dipped into a saturating concentration Antibody 1. A second baseline was now set for 300 sec. Then the antigen-antibody 1 complex was dipped into Antibody 2 solution for 180 sec and then allowed to dissociate.

T1 sequence (Q13421 other isoform, or with tags, fused parts or gaps limits assumed): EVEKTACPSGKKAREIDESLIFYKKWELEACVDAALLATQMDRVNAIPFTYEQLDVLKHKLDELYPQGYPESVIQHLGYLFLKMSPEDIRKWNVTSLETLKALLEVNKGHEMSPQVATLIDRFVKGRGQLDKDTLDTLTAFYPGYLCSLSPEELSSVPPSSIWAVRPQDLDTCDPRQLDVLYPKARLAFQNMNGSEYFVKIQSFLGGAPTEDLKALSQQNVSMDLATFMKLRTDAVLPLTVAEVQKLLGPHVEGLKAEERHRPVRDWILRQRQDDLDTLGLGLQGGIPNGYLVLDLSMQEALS

fold over background MFI signal [3]: 141 fold over background
B3: anti-MSLN single domain antibody clone 394607 (VHH)
VHH: QLQLQESGPGLVKPSETLSLTCTVSGGSISNSYYWGWIRQPPGKGLEWIGSIYYSGSTYYNPSLKSRVTISVDTSKNQFSLSLNSVTAADTAVYYCATQDGVGATTTEEYWGQGTLVTVSS
notes: Human VH single domain antibody; Tested as antibody-containing supernatant

fold over background MFI signal [3]: 78 fold over background
B5: anti-MSLN single domain antibody clone 394610 (VHH)
VHH: B3 VHH with N31S, Y54H, S57N, S82K, N84S, A97T, T98S
notes: as for B3

fold over background MFI signal [3]: 87.3 fold over background
B6: anti-MSLN single domain antibody clone 394606 (VHH)
VHH: B3 VHH with N31S, Y54H, S57N, S82K, N84S, D100N
notes: as for B3

fold over background MFI signal [3]: 194 fold over background
B7: anti-MSLN single domain antibody clone 394573 (VHH)
VHH: B3 VHH with Y54H, S57N, S82K, N84S, D100N
notes: as for B3

EC50 [1]: 1.3 nM
EC50 [2]: 2.2 nM
fold over background MFI signal [3]: 367 fold over background
Kd [4]: 220 nM
B8: anti-MSLN single domain antibody clone 394582 (VHH)
VHH: B3 VHH with Y54H, S57N, S82K, N84S, A97T, D100N
notes: Human VH single domain antibody; It was captured on anti-hIgG Fc sensors

More lines, now with the values behind:

B1: anti-MSLN single domain antibody clone 394556 (VHH)
VHH: B3 VHH with Y54H, S57N, S82K, N84S, A97V
notes: Human VH single domain antibody; It was captured on anti-hIgG Fc (AHC) sensors, so it apparently carried a human Fc
EC50 [1]: 2.5 nM
EC50 [2]: 2.9 nM
fold over background MFI signal [3]: 540 fold over background
Kd [4]: 90.4 nM

B2: anti-MSLN single domain antibody clone 392026 (VHH)
VHH: B3 VHH with Y54H, S57N, S82K, N84S, A97T, T98S
EC50 [1]: 9.8 nM

B4: anti-MSLN single domain antibody clone 394541 (VHH)
VHH: B3 VHH with Y54H, S57N, I70M, S82K, N84S, A97T, T98S
notes: as for B8
fold over background MFI signal [3]: 422 fold over background
Kd [4]: 3800 nM

B9: anti-MSLN single domain antibody clone 394567 (VHH)
VHH: B3 VHH with T58I, Y59H, S82K, N84S, A97T, T98S
notes: as for B3
fold over background MFI signal [3]: 16.9 fold over background
